From patent US11028127B2, “Peptides capable of reactivating p53 mutants” (Yeda Research and Development Co. Ltd., priority 2013, dated 2021) come the findings set out here.

One assay has as its target T1, Mut-p53 (R175H p53) (Homo sapiens, UniProt P04637, R175H).
T1 construct: a hot spot full length mutant p53 Mut-p53 R175H (R175H p53); expressed in transfected cells; host or cells: H1299 (p53-null) cells stably overexpressing R175H p53; cell extract
Nature of the assay: p53/DNA binding ELISA kit (R&D), binding to p53-RE DNA. Format: biochemical. As to conditions: H1299-R175H p53 cell extracts, vs background (NT). The text has this: A commercial p53/DNA binding kit (R&D) was used, according to manufacturer instructions. Briefly, 96 well plates were coated with anti-p53 antibody overnight. Cell extracts containing p53 were reacted with an oligonucleotide that contains a p53 consensus binding site, labeled with biotin, in the presence or absence (NT) of test peptides. WT p53 is expected to bind this DNA binding site as well as to the antibody coating the test wells of the plate. Excess p53 and oligos are washed away and streptavidin-HRP is used to quantify the amount of oligos in the well, which is proportional to the DNA bound by p53. TMB assay was performed to determine HRP levels (450 nm). The results are presented as relative absorbance (at 450 nm) (Y-Axis) of each tested sample. MCF7 and the H1299-Mut-p53 (ts) A135V cells serve as positive controls for WT p53.
For these experiments, a commercial p53/DNA binding kit of “R&D” (Cat-DYC1355-5 Lot-1273366FA) was used, in accordance with manufacturer guide lines. Briefly, 96 well plates are coated with anti-p53 antibody overnight. Cell extracts containing p53 are reacted with an oligonucleotide that contains a p53 consensus binding site (provided in the kit), labeled with biotin, in the presence or absenc.
e (NT) of test peptides. WT p53 is expected to bind this DNA binding site as well as to the antibody coating the test wells of the plate. Excess p53 and oligos were washed away and streptavidin-HRP was used to quantify the amount of oligos in the well, which is proportional to the DNA bound by p53. TMB assay was performed to determine HRP (ES001-1L-K) levels (450 nm).
To measure the effect of the tested peptides on DNA binding of Mut-p53, a commercial ELISA kit, (R&D Systems DYC1355-5, Lot-1273366FA), was used as a high-throughput assay to quantify p53 activation. This kit uses a 96-well plate format. The kit was used according to manufacturer's instructions. Wells were coated with anti-p53 antibody overnight. Cell extracts containing p53 were reacted with a biotin labeled oligonucleotide containing a p53 consensus binding site (included in the kit). WT p53 is expected to bind this oligo as well as the antibody coating the wells. Excess p53 and oligo were washed away in wash buffer (0.05% Tween 20 in PBS, pH 7.2-7.4; R&D Systems, Catalog #WA126). Then, streptavidin-HRP (R&D Systems, Part 890803, provided in the kit) was added for 15-45 min to quantify the amount of oligo in the well, which is proportional to the DNA bound by p53. If the addition of a peptide to Mut-p53 extracts increases ELISA reading compared to background, this peptide is considered as functionally effective and may be selected for further analysis. […] As with the conformational screening, MCF7 and the H1299-Mut-p53 (ts) A135V cells served as positive controls for WT p53. Extracts were added to the wells coated with αp53-Ab, and after several washing steps, streptavidin-HRP was added for 1 hour, and then plates were washed again and TMB (substrate to HRP) assay was performed.
(In an ELISA, binding on a coated surface is turned into a signal by an enzyme label.)

Assay [1] has as its system SKBR3 cells expressing endogenous R175H p53. Particulars: SKBR3 ShCon cells, 5 ug/ml, 18 hours. Here is the method: FIG. 16 is a bar graph illustrating the effect of the indicated peptides on activation of Mut-p53 by measuring transactivation of p53 target genes as determined by qRT-PCR. SKBR3 ShCon cells and SKBR3 Shp53 cells knocked down for p53 expression were used. The cells were plated in 12-well dishes and the indicated peptides were added directly to the medium at a concentration of 5 ug/ml. 18 hours later cells were harvested, followed by qRT-PCR analysis. Expression level of p21, PUMA and Mdm2 was evaluated. FIG. 16 illustrates the relative fold induction of transcription of the tested genes in the various samples relative to their transcription level in non-treated cells. GAPDH mRNA was measured in parallel as a control.
RNA was obtained using Macherey-Nagel NucleoSpin RNA II Kit on cells pellet according to the manufacturer's protocol. Aliquots of 0.4-1 μg were reverse transcribed using Bio-RT 2000 (Bio-Lab) and random hexamer primers. Quantitative real-time polymerase chain reaction (QRT-PCR) was performed on an ABI 7300 instrument (Applied Biosystems) using PerfeCTa SYBR Green FastMix ROX (Quanta). RT-PCR primers used are presented in Table 1 (primers sequences are presented 5′ to 3′).
The tested peptides were further tested for their effect on p53 target gene expression in SKBR3 cells expressing endogenous R175H p53. […] In essence, these cells were plated in 12-well dishes; the indicated peptides were added directly to the medium at a concentration of 5 ug/ml. 18 hours later cells were harvested, followed by qRT-PCR analysis. Expression level of p21, PUMA and Mdm2 was evaluated. Expression of those genes in non-treated cells is considered background and all results were normalized to it, as well as to GAPDH.

In the next assay the target is T2, R249S p53 (Homo sapiens, UniProt P04637, R249S).
T2 construct: expressed in transfected cells; host or cells: H1299 p53-/- cells, transient transfection
Nature of the assay: TK-RGC-luc luciferase reporter assay in H1299 p53−/− cells. Format: cell-based. Particulars: peptides added 24 hours after transfection, read at 48 hours. As for the experimental part:
(§1) FIG. 12 is a bar graph illustrating the relative luciferase activity (cLuc/gLuc) as measured in the various tested samples. Transient transfection of H1299 p53^−/− cells was performed with plasmids expressing WT p53, R175H p53, R249S p53 or empty vector as control, together with TK-RGC-luc, where luciferase expression is under control of a tandem array of multiple p53-responsive elements. 24 hours after transfection, cells were treated with the test peptides. 48 hours after transfection, a sample of the culture medium was taken for bioluminescence measurements.
(§2) The oligonucleotide (RGC-W) that has the sequence 5′-[…]-3′ (SEQ ID NO:362), and the oligonucleotide mutant RGC oligonucleotide (RGC-M) that has the sequence 5′-[…]-3′ (SEQ ID NO:363), are both derived from Kern et al. (Kern, S. E., et al., Identification of p53 as a sequence-specific DNA-binding protein. Science, 1991. 252(5013): p. 1708-11), and serve as a consensus binding sites for WT p53.
(§3) These motifs were cloned into the KPN and Eco53IK sites in pCLuc Mini-TK 2 Vector (NEB, Cat No. N0324S ). The Luciferase construct was used to assess transcriptional activation of p53 in test cells.
(§4) H1299 p53-null cells were cultured overnight and then transfected with the luciferase constructs using MaxFect Transfection Agent (Mediatech) according to the manufacturer's protocol. Prior to the transfection, cell medium was exchanged to OPTI-MEM.
(§5) The cells were treated with different peptides 24 hours after transfection. After additional 24 hours, growth medium was collected to 96 black plates: 40 μl for Cluc assay, and 20 μl for Gluc assay. Assay was performed using Turner BioSystems Modulus Microplate. Value was calculated by Cluc/gluc/NT (non-treated cells).
(§6) As additional screening strategy used to identify reactivating peptides was performed in vivo and is based on a reporter gene assay. It measures p53 transcriptional activity by quantifying the activity of a reporter gene, placed under the control of a promoter containing 17 repeats of a p53 consensus binding site (RGC). The luciferase assay is performed on living cells and therefore provides an indication on the effect of test peptides on Mut-p53 function in the context of intact cells.
(§7) For the in vivo luciferase based screening, H1299 cells were used. Transient transfection of these p53^−/− cells was performed with vectors expressing WT p53, R175H p53, R249S p53 or empty vector as control (Suad, O., et al., Structural basis of restoring sequence-specific DNA binding and transactivation to mutant p53 by suppressor mutations. J. Mol. Biol., 2009. 385(1): p. 249-65). Cells were also co-transfected with TK-RGC-luc (CAT. No. NEB, N0324S). 24 hours after transfection, cells were treated with the test peptides. […]
(In a reporter assay the amount or activity of a reporter protein is the signal.)

The target in another assay is T3, R175H p53 (Homo sapiens, UniProt P04637, R175H).
T3 construct: a hot spot full length mutant p53 Mut-p53 R175H (R175H p53); expressed in transfected cells; host or cells: H1299 p53-/- cells, transient transfection
Described as above. In kind it is cell-based. Particulars: peptides added 24 hours after transfection, read at 48 hours. Here is the method:
as §1, §2, §3, §4, §5, §6, §7

The subject of assay [2] is WI-38 fibroblasts overexpressing R175H p53 (WI38-175). Nature of the assay: Crystal violet viability assay. In kind it is cell-based. As to conditions: 48 hours; much more prominent than in mNoxa-i control cells. Here is the method:
FIGS. 13A and 13B are bar graphs illustrating the effect of various tested peptides on the viability of cells expressing Mut-p53, as determine by crystal violet assay. WI-38 fibroblasts expressing endogenous WT p53 were infected with retroviruses expressing either mouse Noxa shRNA (WI38-m-Noxa-i) as a nonspecific control or the R175H p53 mutant for stable overexpression of mutant p53 (WI38-175). The cells (WI38-m-Noxa-i or WI38-175) were seeded at 3000 cells per well in 96-well plates. Tested peptides were added to the cells. Different concentrations of etoposide (cytotoxic drug, 4′-Demethyl-epipodophyllotoxin 9-[4,6-O—(R)-ethylidene-beta-D-glucopyranoside], 4′-(dihydrogen phosphate) were used as positive control for cell death and as a standard reference curve to assess the effect of tested peptides. 48 hours after treatment, cells were washed with PBS to exclude dead cells and debris, and cells that remained attached to the plate were stained with crystal-violet for 30 minutes. Crystal violet was removed and cells were washed 4 times with PBS to remove residual crystal violet. Then, the stained cells were dissolved in 10% acetic acid and plates were taken for optical density measurement at 595 nM (optimal for crystal violet). The bar graphs of FIGS. 13A and 13B show the optical density reads at 595 nm, which reflect the number of cells in the plate after treatment, normalized to the non-treated (NT) samples.
Cells were cultured in 96 wells plates with 2500-4000 cells/well in 0.1 ml and incubated overnight at 37° C. in order to adhere to the plate. Serial dilutions of different peptides (0.5 μg/ml) were added in 0.1 ml aliquots and the plates incubated for additional 48 h at 37° C. Then medium was removed and cell lysis was determined by staining the cells with crystal violet (0.5%) in methanol/water (1:4, v/v), 50 μl each well, for 10 min, followed by 3 washes with PBS. Afterwards, 10% acetic acid (50 μl) was added to each well and shaken for 10 min. Then, automatic plate reading was performed at 595 nm.
An important indication for the reactivating peptides activity is their effect in-vivo on cancer cells that express Mut-p53. In particular, reactivating peptides that can cause specifically Mut-p53-dependent death of cancer cells, with minimal toxic effects on normal cells are desired. A crystal-violet based viability assay, in which crystal-violet is employed to stain cells that adhere to the plate and therefore the amount of dye is proportional to cell number was used to determine the effect of the various test peptides on Mut-p53-dependent death.
Cells were plated in 96-well plates, at calibrated density that allows them to grow for 48 hours without reaching confluence. Peptides are added 6 hours later. Different concentrations of etoposide (cytotoxic drug) were used as positive control for cell death and as a standard reference curve to assess the effect of tested peptides. 48 hours after treatment, cells were washed with PBS to exclude dead cells and debris, and cells that remained attached to the plate were stained with crystal-violet for 30 minutes. Crystal-violet was removed and cells were washed with PBS 4 times to eliminate remains of crystal-violet. Then, the stained cells were dissolved in 10% acetic acid and plates were taken for optical density measurement at 595 nM (specific to crystal-violet).
FIGS. 13A and 13B illustrate a representative experiment of screening performed on 128 synthesized peptides. In this experiment, WI-38 fibroblasts were used. These cells express endogenous WT p53 and were further infected with a virus expressing either mouse Noxa shRNA, as a nonspecific control or the R175H p53 mutant for stable overexpression of mutant p53. Both of these sub-lines (mNoxa or R175H p53) were seeded at 3000 cells per well and treated as described above. […]

As to ATQHHYIK [pCAP-93], in the assay with Mut-p53 (R175H p53), the “binding of H1299-R175H p53 extracts to p53-RE DNA” value (from here on “binding”) is “elevate the binding of H1299-R175H p53 extracts to p53-RE DNA”.

HSSHHHPVHSWN [pCAP-83]: in the assay with Mut-p53 (R175H p53), the “binding” value is reported as “elevate the binding of H1299-R175H p53 extracts to p53-RE DNA”. For SFILFIRRGRLGRRRRRRRRR [pCAP-144], in assay [1], the “transactivation of p53 target genes (p21, PUMA, Mdm2)” value is “among the highest transactivation levels”. Consider TRILCIVRKKRRQRRRRGDR [pCAP-75], for which, in the assay with R249S p53, the “transcription from TK-RGC-luc in the presence of R249S p53” value is “induce transcription from TK-RGC-luc”. Moreover, the “transcription from TK-RGC-luc in the presence of R175H p53” value with R175H p53 was “induce transcription from TK-RGC-luc”. For the same sequence, the “binding” value with Mut-p53 (R175H p53) was “elevate the binding of H1299-R175H p53 extracts to p53-RE DNA”. With WNHHHSTPHPAH [pCAP-97], in assay [2], the “reduction in cell numbers, R175H p53 expressing WI-38 cells” value was “significant reduction in cell numbers”. In addition, the “binding” value with Mut-p53 (R175H p53) was “elevate the binding of H1299-R175H p53 extracts to p53-RE DNA”. Take WNHHHSTPHPRRRRRRRRRR [pCAP-148]: the “transactivation of p53 target genes (p21, PUMA, Mdm2)” value in assay [1] was “among the highest transactivation levels”.
